Test results taken from the supplement of paper PMC9112550, “Optimization of the antimicrobial peptide Bac7 by deep mutational scanning” (BMC Biology, 2022).

tested on: Escherichia coli TOP10; assay: shrunken log2 fold change of peptide-encoding DNA abundance (4.5 h post-induction vs induction); higher = less antimicrobial activity (less host growth inhibition); details: time post-induction: 4.5 h; library: site-saturation at positions 5, 18, 19, 20
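Also: peptides expressed intracellularly from a pBAD plasmid library in pooled LB shake-flask culture, induced with 0.3% L-arabinose, DNA abundance read by NGS, three biological replicates, DESeq2 with apeglm shrinkage.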

Row | Sequence | shrunken log2 fold change
1 | RRIRARPPRLPRPRPRPFDVPRP | -0.0821
2 | RRIRARPPRLPRPRPRPFFDPRP | 0.107
3 | RRIRARPPRLPRPRPRPFFKPRP | -0.0427
4 | RRIRARPPRLPRPRPRPFGWPRP | 0.24
5 | RRIRARPPRLPRPRPRPFHLPRP | -0.36
6 | RRIRARPPRLPRPRPRPFHNPRP | -0.625
7 | RRIRARPPRLPRPRPRPFHVPRP | 0.00498
8 | RRIRARPPRLPRPRPRPFIMPRP | -0.507
9 | RRIRARPPRLPRPRPRPFIPPRP | -0.492
10 | RRIRARPPRLPRPRPRPFKFPRP | 0.0771
11 | RRIRARPPRLPRPRPRPFKQPRP | 0.123
12 | RRIRARPPRLPRPRPRPFKWPRP | -0.176
13 | RRIRARPPRLPRPRPRPFLAPRP | -0.122
14 | RRIRARPPRLPRPRPRPFMKPRP | 0.528
15 | RRIRARPPRLPRPRPRPFNPPRP | -0.432
16 | RRIRARPPRLPRPRPRPFNQPRP | -0.257
17 | RRIRARPPRLPRPRPRPFQDPRP | -0.297
18 | RRIRARPPRLPRPRPRPFQPPRP | 0.0667
19 | RRIRARPPRLPRPRPRPFRYPRP | -0.283
20 | RRIRARPPRLPRPRPRPFSYPRP | -0.0901
21 | RRIRARPPRLPRPRPRPFTGPRP | -0.00992
22 | RRIRARPPRLPRPRPRPFTSPRP | 0.0705

Row | Sequence | shrunken log2 fold change
23 | RRIRARPPRLPRPRPRPFTTPRP | -0.0831
24 | RRIRARPPRLPRPRPRPFVWPRP | 0.204
25 | RRIRARPPRLPRPRPRPFYHPRP | -0.462
26 | RRIRARPPRLPRPRPRPGAQPRP | 0.92
27 | RRIRARPPRLPRPRPRPGAWPRP | 0.259
28 | RRIRARPPRLPRPRPRPGAYPRP | 0.249
29 | RRIRARPPRLPRPRPRPGCQPRP | 0.168
30 | RRIRARPPRLPRPRPRPGDHPRP | 0.114
31 | RRIRARPPRLPRPRPRPGEFPRP | 0.388
32 | RRIRARPPRLPRPRPRPGEHPRP | 0.351
33 | RRIRARPPRLPRPRPRPGEMPRP | 0.228
34 | RRIRARPPRLPRPRPRPGFVPRP | 0.42
35 | RRIRARPPRLPRPRPRPGGTPRP | 0.41
36 | RRIRARPPRLPRPRPRPGGYPRP | 0.116
37 | RRIRARPPRLPRPRPRPGIKPRP | -0.0359
38 | RRIRARPPRLPRPRPRPGILPRP | 0.287
39 | RRIRARPPRLPRPRPRPGKLPRP | 0.149
40 | RRIRARPPRLPRPRPRPGNLPRP | -0.232
41 | RRIRARPPRLPRPRPRPGPKPRP | 0.421
42 | RRIRARPPRLPRPRPRPGPNPRP | 0.66
43 | RRIRARPPRLPRPRPRPGPSPRP | 0.6
44 | RRIRARPPRLPRPRPRPGPWPRP | 0.193

Row | Sequence | shrunken log2 fold change
45 | RRIRARPPRLPRPRPRPGSTPRP | 0.247
46 | RRIRARPPRLPRPRPRPGTVPRP | 0.336
47 | RRIRARPPRLPRPRPRPHAIPRP | 0.0503
48 | RRIRARPPRLPRPRPRPHCPPRP | -0.0475
49 | RRIRARPPRLPRPRPRPHGLPRP | 0.268
50 | RRIRARPPRLPRPRPRPHIEPRP | -0.0716
51 | RRIRARPPRLPRPRPRPHIVPRP | -0.000968
52 | RRIRARPPRLPRPRPRPHMEPRP | 0.157
53 | RRIRARPPRLPRPRPRPHQAPRP | -0.0279
54 | RRIRARPPRLPRPRPRPHQKPRP | -0.0267
55 | RRIRARPPRLPRPRPRPHQLPRP | 0.086
56 | RRIRARPPRLPRPRPRPHREPRP | 0.0826
57 | RRIRARPPRLPRPRPRPHRVPRP | -0.13
58 | RRIRARPPRLPRPRPRPHRWPRP | 0.0671
59 | RRIRARPPRLPRPRPRPHSSPRP | -0.137
60 | RRIRARPPRLPRPRPRPHTCPRP | -0.29
61 | RRIRARPPRLPRPRPRPHTQPRP | -0.0761
62 | RRIRARPPRLPRPRPRPHTYPRP | -0.126
63 | RRIRARPPRLPRPRPRPHVIPRP | 0.0726
64 | RRIRARPPRLPRPRPRPHWRPRP | 0.319
65 | RRIRARPPRLPRPRPRPIAHPRP | 0.13
66 | RRIRARPPRLPRPRPRPIAIPRP | 0.0259

Row | Sequence | shrunken log2 fold change
67 | RRIRARPPRLPRPRPRPICCPRP | 0.316
68 | RRIRARPPRLPRPRPRPICYPRP | -0.0212
69 | RRIRARPPRLPRPRPRPIDRPRP | -0.027
70 | RRIRARPPRLPRPRPRPIEIPRP | 0.0613
71 | RRIRARPPRLPRPRPRPIENPRP | 0.203
72 | RRIRARPPRLPRPRPRPIEPPRP | 0.0525
73 | RRIRARPPRLPRPRPRPIERPRP | 0.047
74 | RRIRARPPRLPRPRPRPIGQPRP | 0.34
75 | RRIRARPPRLPRPRPRPIIDPRP | 0.216
76 | RRIRARPPRLPRPRPRPIITPRP | -0.298
77 | RRIRARPPRLPRPRPRPIKGPRP | 0.3
78 | RRIRARPPRLPRPRPRPIMVPRP | -0.146
79 | RRIRARPPRLPRPRPRPIPAPRP | 0.333
80 | RRIRARPPRLPRPRPRPIPNPRP | -0.069
81 | RRIRARPPRLPRPRPRPIRIPRP | 0.0541
82 | RRIRARPPRLPRPRPRPISLPRP | -0.0678
83 | RRIRARPPRLPRPRPRPITCPRP | -0.119
84 | RRIRARPPRLPRPRPRPITHPRP | -0.045
85 | RRIRARPPRLPRPRPRPIVHPRP | -0.311
86 | RRIRARPPRLPRPRPRPIVRPRP | -0.146
87 | RRIRARPPRLPRPRPRPIYEPRP | -0.352
88 | RRIRARPPRLPRPRPRPIYHPRP | -0.359

Row | Sequence | shrunken log2 fold change
89 | RRIRARPPRLPRPRPRPKALPRP | 0.294
90 | RRIRARPPRLPRPRPRPKAWPRP | 0.146
91 | RRIRARPPRLPRPRPRPKCFPRP | -0.0172
92 | RRIRARPPRLPRPRPRPKCQPRP | 0.432
93 | RRIRARPPRLPRPRPRPKCTPRP | 0.316
94 | RRIRARPPRLPRPRPRPKDVPRP | 0.0479
95 | RRIRARPPRLPRPRPRPKFQPRP | 0.328
96 | RRIRARPPRLPRPRPRPKGMPRP | 0.4
97 | RRIRARPPRLPRPRPRPKIDPRP | 0.115
98 | RRIRARPPRLPRPRPRPKIQPRP | 0.26
99 | RRIRARPPRLPRPRPRPKKEPRP | 0.0428
100 | RRIRARPPRLPRPRPRPKKHPRP | 0.417
101 | RRIRARPPRLPRPRPRPKLIPRP | 0.128
102 | RRIRARPPRLPRPRPRPKLNPRP | 0.16
103 | RRIRARPPRLPRPRPRPKMKPRP | 0.131
104 | RRIRARPPRLPRPRPRPKMPPRP | 0.114
105 | RRIRARPPRLPRPRPRPKNDPRP | 0.222
106 | RRIRARPPRLPRPRPRPKQNPRP | 0.481
107 | RRIRARPPRLPRPRPRPKRRPRP | 0.282
108 | RRIRARPPRLPRPRPRPKRWPRP | 0.586
109 | RRIRARPPRLPRPRPRPKVQPRP | 0.0571
